The record followed here is article PMC12753876 (2025).

B1: CRY1^(PHR WT) in pGADT7 (AD) [Arabidopsis thaliana] / HsFA3^WT in pGBKT7 (BD) [Arabidopsis thaliana] (parent complex)
chain 1: MSGSVSGCGSGGCSIVWFRRDLRVEDNPALAAAVRAGPVIALFVWAPEEEGHYHPGRVSRWWLKNSLAQLDSSLRSLGTCLITKRSTDSVASLLDVVKSTGASQIFFNHLYDPLSLVRDHRAKDVLTAQGIAVRSFNADLLYEPWEVTDELGRPFSMFAAFWERCLSMPYDPESPLLPPKKIISGDVSKCVADPLVFEDDSEKGSNALLARAWSPGWSNGDKALTTFINGPLLEYSKNRRKADSATTSFLSPHLHFGEVSVRKVFHLVRIKQVAWANEGNEAGEESVNLFLKSIGLREYSRYISFNHPYSHERPLLGHLKFFPWAVDENYFKAWRQGRTGYPLVDAGMRELWATGWLHDRIRVVVSSFFVKVLQLPWRWGMKYFWDTLLDADLESDALGWQYITGTLPDSREFDRIDNPQFEGYKFDPNGEYVRRWLPELSRLPTDWIHHPWNAPESVLQAAGIELGSNYPLPIVGLDEAKARLHEALSQMWQLEAASRAAIENGSEE
chain 2: not shown

In the first assay the parent is B1. Description: yeast two-hybrid (beta-galactosidase, Miller units); n=3; parent: 280; read off a plot.
As for chain 1 K332A, chain 1 R335A, the response is around 300 Miller Units.

The variants in the next assay derive from B1. The assay is described as above. The source holds these as a separate data set.
As for chain 1 K332E, the response is around 210 Miller Units.

Turning to chain 1 K332E, chain 1 R335E, the response was around 280 Miller Units.

As for chain 1 R335E, the response is around 210 Miller Units.

In another assay the parent is B1. Described as above. The source holds these as a separate data set.
Turning to chain 1 R211A, chain 1 R435A, the response is around 150 Miller Units.
